Assay results taken from a protein production outcome set (Wang et al. 2014).

experiment: label from the status in PepcDB records

Row | Sequence | protein production
1 | MIGIVMLSKIANIDAARQGLDLKVKVLSLNKKTIKNDRGETTYFYGIIGDDTGTVSFTAWSFPAAVKSGDVVEIKNCYSSLYNGKIRIYVDSRSQVVLKPDEYLEVKRTVELVKLRDLSLTTPYVSVIGRISGIKEKNYDSDRGSKIVYQGFIEDETAKVRISSFGKPLKDGEIVRVENARVSQYNGYMGISIGENSSIDNVQAQIEVGSRPIFIAEIKSPIGGVTITGFAVSVGQGSRIFTKCSICKKILEDGKCKDHPRAPVYLDIFGYFLLSDGTGSLTCYLNKDSFLPYIKMDTEEFKSQAFSMNPNMLIKKNILGKCLSVTGDLRLRDDKITMNASSIKEADADSVKDIEKTIQEEFQLEHHHHHH | failed
2 | MIGKHFIITGATSGLGFAITNELLQRGAHVTILARNIDKFNRIKENYFKPEHINVIKCDLMQRKDIESLQKFLNTPINGFIYSSGVGYFKSISEHSTREVVETYEVNLTNFNLLYKVIQPQLVKAAYIVGISSQAALVSQANAAHYGASKAGFSAVLNALRLEQPELKVLNVQPGPIDTPFQKNADPTLKYFKNYRHMMIQPQQLAKQIVEGIILNKIEINQPSWMQIMLKFYQLCPRTLEKLCPNLFKNKV | failed
3 | MIHLVSLLALAFAVSLDSFGVGLTYGLRKMKIPFKSLLFIAGCSAVSILIAMGFGMTIQQYLSPAIAESLGGIILILIGCWALYQAFRPAKNGHKTKDDHVILNFEIKMLGVVIRILRKPMVADFDNSGAITGREAVILGIALSLDAFGAGIGAALIGFHPLYMAVSVAVMSALFVSLGMKSGYRFADSYWIKRFSFIPGLLLVLIGVFNLMM | failed
4 | MIHSRTILVPTLLFQLALALPLAAGADSRCDDAKRLAATIPVQADGDTTRKTEDVVLESCADGAAGYFVRGLRAERAGRHDEAIKDYREALRLEPAFPRAQGNLGLALLAKGSHDDAVVELTRAISSDPDPGYHHGLAMIFGQRKIYSLALYHYAEAAKGLPADPVIPTELAALYREMGKVSDAEKQYRKALSLSPSHEEARVGLASLYMAEGRTDRAIEELKQAQIASPGNKEVSSLLAEAYEKKGDRQAADYQSLLAGKQRGVLSDERLRRGDELMQAKEYAKAAEEFKAALREKPDWPEALMRLAEAQTAAGFDDEAITSYKELIRLKLGTGDTHYNLGVLYERKGLIDEAVVEYKQAIHSSPDNGDARRRLADIYALRGSYPQAIEQYRELLKKGDNNPVLHLKLARALLGAKNPKEAMASYQDALKIAPDNLEARRELAALYRKGNQNEEAEKQYKEILRIKKDDAEARNILTALYVKSKKYDELITLLKDGVELAPNDPASHYKLGLIYEFKKDYDAAEQEYKKAVELKGDHAKSLNALGRIYLKTGKISEAKGALEAAKKADPGMEETAVLLSNIKEELSPEPPRYSKKGRKGKASKEAKKSRASKKKSSKKGAKATSKKSSTKSGGKAKKAKKSH | failed
5 | MIIADNIKQFHSIRNSLIKQQKIGFVPTMGALHNGHISLIKKAKSENDVVIVSIFVNPTQFNNPNDYQTYPNQLQQDIQILASLDVDVLFNPSEKDIYPDGNLLRIEPKLEIANILEGKSRPGHFSGMLTVVLKLLQITKPNNLYLGEKDYQQVMLIKQLVKDFFINTKIIVCPTQRQPSGLPLSSRNKNLTSTDIEIANKIYEILRQDDFSNLEELTNKINSTGAKLQYIQKLNNRIFLAFYIGKVRLIDNFLKETGPSC | not failed
6 | MIIDTPLADRYPHAMKNQDESGDGWESLCERCGLCCFEKIEDENGTVFFTATPCRYLDVTTRQCVIYDKRFDINPECVKLTEELVRTLPWLHDDCAYRKALGVRLSKVRMNGRNKGKRG | failed
7 | MIIEGPVIKFGDKIDTDIIIPARYLKYTDPQYLAQHVMEPLDPEFYKKASKGVIIVAGKVFGMGSSREQAAIALKAAGVKAVVAESFARIFYRNAINNGLPVITLPNSTKEIDENSYVKIDVETGEILVGNKVLKGKGITGMALEILQAGGIMEYLKKMQTVNRN | failed
8 | MIIEYNKLGTILYSRISHKQLYNIFHYSYHEVRLLVYNKYLPIPKQFNDEFWTVEKVEHIRYLSLTGKPYKIFNEDMNSLRVLDKVRFKLDKATSISLTPKANLELEFSGIYMKSPLYLGDMSYGALSGNPNIAIATAADLTETLAGTGEGGLHPEVAKHKRIFVQWASARFGVDIRVLTAGMGVVIKIGQGAKPGIGGHLPGNKVTEPISLTRRIPIGIDAISPAPHHDIYSIEDLGQRIEALKEATGRPVFVKVAATNYIPYIVSGIARMGADGVIIDGHGAGTGATPVVIRDNVGIPIELAIASADKILRREGLRDKFTIIAAGRVSSATDAAKLFALGADIVSVGTGALIAMGCVMVHKCHVGSCPTGLTAKIDGTRVVDTEFGVKMLVNFINGFSLELANILDNLGLNNIRELRGRRDLLYGHGLSKDTLETLGIDGTEDEANPKLGELWNRRIIAYMHELMNKGNPVITSMGSTAPPDVEKPARIIDWLRSDGAQVTRPSIDPYREDVDTSFYLKGGEIYLSLPIIFDITEAPLEYKEAFSWSALALSSAVFDYETIDKYAEVFISSDGRGIARWSRNEIYENSYLLIPADENVIDEVIGMGVQGFIIDEDSGNSDLELVVSALDTKLKEVGVRNHYDILAKSSRLRHSADAFKLILLGADSVIMPYFILEKAIGEGNKGNLKEKAFSLITGMKKEIALLAGAAGVYSVQSTLTGNRELLRSINLNHSIRKALRIKPAGSL | failed
9 | MIIGIDVGGTNTDAAIVSDEIKTIKLPNEAGIGGILKEISKEANLIEEKVVVSTSWPLNLIISKFSESRTLSLVIPGPGLNYSEYGEVLKGYVNHRGDVVEDIDEYEIAAIFRENSYDNVAISSKFSVRNGSLEDRVAEIVRNYV | failed
10 | MIIGNCLILKDFSSEPFWGAVEIENGTIKRVLQGEVKVDLDLSGKLVMPALFNTHTHAPMTLLRGVAEDLSFEEWLFSKVLPIEDRLTEKMAYYGTILAQMEMARHGIAGFVDMYFHEEWIAKAVRDFGMRALLTRGLVDSNGDDGGRLEENLKLYNEWNGFEGRIFVGFGPHSPYLCSEEYLKRVFDTAKSLNAPVTIHLYETSKEEYDLEDILNIGLKEVKTIAAHCVHLPERYFGVLKDIPFFVSHNPASNLKLGNGIAPVQRMIEHGMKVTLGTDGAASNNSLNLFFEMRLASLLQKAQNPRNLDVNTCLKMVTYDGAQAMGFKSGKIEEGWNADLVVIDLDLPEMFPVQNIKNHLVHAFSGEVFATMVAGKWIYFDGEYPTIDSEEVKRELARIEKELYSS | not failed
11 | MIIHIRRTDEKQRWLFFSTLLNATLAVAKLGWGWMMGSTLVVADGIHSISDVFGALLIFLALFFAAHKSERFPYGLHKLEDMAAVLGGLGILYAGYEIIHSVFFEAGIKTPEAIWTTIGFILAIVFIQYTFYFFELKAAQRLGSPGVKADAVNWLGDIGAGMIVVIGLVAHHYKVPYAQEVSVIIIVLMILKGAYDVLKEGLLSLLDAADIEMNDTIRNIVMAEPDITNIKRLNVRKSGSVYFADIELSIAEVATAKAHKSIDEVVNRLHEEINTLEAVTIHYEPDHPPYRTVVRLLDKDKKHLSIHFGQTAWLEITHIEADNKQISKEFVKNSAVIAPKGKAFRLVAYLLSIHTDTIVMGNAELDENILTLFEALNIEVKKEKNDET | failed
12 | MIIIMAGGKSSRMGREKPVLKIAGKEMLLWVYEQAEAVGEVLVALSRHTPRTRELCLREGIEFVDTPGRGYVKDVQWLLREFGPFISLSSDIPFVKSSDIYSLLKEFDGKVSLTGVLPLEVVPKDLTPYSYMGYAIVGINGVAKEGEKFFVFSNPLLALNVNTPRELELAKRVAEIIRVRGIRLEHHHHHH | not failed
13 | MIILPKTLYEEMLNHCLNSLPIEACGLLGGVIEDEKRIVKKVYLLTNVDQSPEHFSMDPLEQFAAVKDMRKNGWVLLGNFHSHPTTPARPSEEDKRLAFDKSLSYLILSLMDEKNPVLKSFRIYESYVEEEEIQIILEHHHHHH | failed
14 | MIIRDQLILSIDNDLRDLIKARDIGVIYVYREETGEPEPGPSIEDIDLPEPLLEALKKRGIRRLYRFQYDAYKSILNGENVVITAGTGTGKTEAFLLPILSKIYEKRTPNPQAMLVYPTKALARDQLQRINDYLGYGVFSAAVYDGDTPRRIRQKISANPPDIVVTNPDMIHVGLVLSPTIRRFVKASQFMVIDELHVYEGVFGSNVKCVFERINKYRRNNPPQYIGSSATIGNPREHAETLFGVPVKVIEGPLRRRGIAYHVLVSAGKLSRWTVTAALASVLARRGLRFIVFVDSQQMAELIARIAWRSYGVDIMVHRAGLPADERKMIESKLRAGEISGVAATPTLELGIDIGFLDAVIMAAPPPSFAKYLQRAGRAGRRGRKGYVFTVLADDPIDAYYERNPKRYFEQEIPPLYMDPENEEVLRIHLLALLLEQGRIRRDELKRAWLRVAERLRYERLVAWVGPYIYPNYRLARKIFMEYMSIRGSGPQVVIYDVDEKNIVGYRELPQAVLDLHPDAVYLLNRRVYKSIEIDVDKKIARVKRLPDDTPYYTRPLYTVDLVDYSILASRTSSRGIPLAYAWVKLSINVEGYIVRNYWETEKAGIKYWFDHPITYTYNTKALLLKYPENPEWDYMSNAEAFHAIEHALISAARPVCGAALGEMGGISYPSGDIVIYDGAPGGSGLAKLLFERFEKAEEIAYEIVSKCDCEDGCPRCIYSPYCGNNNQVLSRRKATYVLGNILKRGAVKVMEPIKNRYGKPIV | failed
15 | MIIRNGCLEDLQQVISIEQINFSEAEAASKKAMQERLTIMTDTFLVAEINGRLAGYIEGPVIKGRYLTDDLFHKVSEFPVRVGGFIGITSLSIHPDFKGQGIGTALLAAMKDLVVSQERDGISLTCHDDLISFYEMNGFKDEGESDSKHGGSLWYNMIWNNPTRSIC | failed
16 | MIIRYATPDDIEDMVSIFIDAYNFPGPRESVKSSFEISLEVQPDGCLLAFLKDEPVGMGCIFFYNKQAWIGLMGVKKAYQRRGIGTEVFRRLLEIGRRKVDTIRLDASSQGYGLYKKFKFVDEYRTVRYELMERPIKRVEGVVEVNKIPNWVKEIDKKAFGDDRIRVLEAYMRRGARLLCAENEGFGLVYRGKIGPLVADSPRVAEKILLKAFQLGAREIIIPEVNKDALELIKIFKPSQVTSCMRMRLGSKIEEKVDIYYGILAYAKG | not failed
17 | MIITIARQCGCGGHEVARILANKLGMELFDKKKLLEEANQLGQAEEHSNFFNEVPINSLLYGIAMGFGNTKPMDKSLKLVKAITENKDAIIIGRCANIIYKDSKDVTSVYLFADKEFRIKYLMERDGISEKEAEKYIKEVDEKRTSFHKYCTDTVWGDAKEYQLCLDTGKIGFEKTAELIMNYINAKKES | failed
18 | MIITLFVMVSGNKVKYEGSGKSGLWMSNLEKSDKTSIGPNYFLNLYWQGSKKEEKWTVVERITLYVDGEKYQDDNVDEYDLSEYTGDEMPGGGRMEDHISTFDYMPEDEVIGHDVLVKVEWRTGQKKQTEAIKLHKKPWYKKLEHHHHHH | failed
19 | MIITQGPQFQGKASKRLHVMAKPIGAVCNIDCSYCYYLSKEDLLEYKKGCSPQMDDETLETYIRQYIEGQNTPEIIFSWQGGEPTLLGLDYFKKIVEFQKKYQPEGILISNDLQTNGTLLTDKWCEFLAENNFLVGLSIDGPEMLHNAYRTNKAGRGTFKQVMNAVELLHKHNVKFATLTCVNNLTSRNPLEVYRFLRDV | failed
20 | MIKAYFGAETFTLNKDFAYILVIGTTDVSLIPGLTIAGATPELTHFTPAADAEYVILGKCKSINTIPVSPTGIPTPALLTRASLSFTKSLKIVVNAGSRITPKIPYIDLQGEPGKDIRKQALSIEKVNIIIENGIKLGEELSNEYELIMIGESIPAGTTTAMATLLALGYDAMDKVSSASPDNPKELKRKVVEEALRNLPTDPLQRLAKVSDPVLLGVAGISLGFRGKILLAGGTQMTAAAAIVNEFDKSKLKDIIIGTTKWIVEDKSADMLSLAKQVGVKVLASMLDLSISIHEGIRTYEKGYVKEGVGAGGSTIMAFIRGVSNSTLVRKIDELYSELVGSNNLNT | failed
21 | MIKDRFLQLIQLLISLFLIMGALGIGITIQKFTGVSVPGSVIGMLVLFFSMTLGLVKVDWVKPGATLFIRYMILLFVPISVGLMQHFDMLLANALPIIASAVGGSLIVLVSLAWLLDYLLKEKH | failed
